Paper PMC11002309, “Cancer-associated polybromo-1 bromodomain 4 missense variants variably impact bromodomain ligand binding and cell growth suppression” (The Journal of Biological Chemistry, 2024)
Positions count from the first letter of the chain named.

B1: PBRM1-BD4 M586I (domain or fragment, human, UniProt Q86U86-5 496-637, looked up)
chain: GDSMISSATSDTGSAKRKSKKNIRKQRMKILFNVVLEAREPGSGRRLCDLFMVKPSKKDYPDYYKIILEPMDLKIIEHNIRNDKYAGEEGIIEDMKLMFRNARHYNEEGSQVYNDAHILEKLLKEKRKELGPLPDDDDMASP
notes: polybromo-1 (PBRM1), fourth bromodomain (BD4) construct, aa 496-637, cancer-associated missense variant; source: E. coli BL21(DE3), purified (Ni-NTA, gel filtration)
B2: PBRM1-BD4 P556S (domain or fragment, human, UniProt Q86U86-5 496-637, looked up)
chain: B1 chain with P61S, I91M
notes: as for B1
B3: PBRM1-BD4 R576L (domain or fragment, human, UniProt Q86U86-5 496-637, looked up)
chain: B1 chain with R81L, I91M
notes: as for B1

Biological target: T1, biotinylated histone H3K14ac(1–20) peptide (acetyl-lysine at K14; biotin on the added C-terminal lysine; C-terminal amide (CONH2))
T1 construct: histone H3, residues 1-20; added C-terminal lysine that carries the biotin; also called H3K14ac peptide; Kac peptide; source: synthetic peptide, bought: Peptide 2.0
Experiment: AlphaScreen or HTRF; full titration: His6-PBRM1-BD4 protein 0.001–2 μM against 50 nM biotinylated H3K14ac(1–20) peptide; streptavidin donor and nickel-chelate acceptor beads; 1× AlphaLISA Epigenetics buffer, 0.05% Tween 20, 2 μM TCEP; room temperature; n = 3
Settings: both partners purified

Binder	EC50 [nM]	fold reduction of affinity against WT [fold]
B1	490 ± 130	–
B2	1000 ± 90	2 to 15
B3	210 ± 20	2 to 15
